Source: US11285197B2, “Mesothelin vaccines and model systems” (priority 2002, dated 2022)

Target: T1, HLA-A2 (Homo sapiens, UniProt P04439, D140Y/D185E/D98H/E176V/E277Q/G131W/G231S/I119V/I121R/I166T/I218V/L300P/L318F/N151K/N90K/P208A/P217A/Q86G/Q94H/R138H/R169H/T345S)
T1 construct: pulsing TAP deficient T2 cells that expressed the corresponding HLA class I molecule (T2-A2, T2-A3, or T2-A24 cells); endogenous in cells; host or cells: human T2 cells (TAP-deficient B/T lymphoblast hybrid), called T2-A2
Assay: T2 peptide/MHC binding assay, T2-A2 cells, W6/32 staining, flow cytometry
Settings: T2-A2 cells pulsed with peptide, HLA class I antibody W6/32, flow cytometry

**Q.** Which “detection of HLA-A2 on the cell surface of peptide-pulsed T2-A2 cells” value does the source give for EIDESLIFY (listed as Homo sapiens) here?
**A.** Its value is “do not stain”.
